Experimental data as given in publication PMC4819454 (ACS Central Science, 2016).
Read-outs that look alike come from different tables or passages of the source.

Assays:
HPA = settings: read-out: Ki against HPA, cited from earlier work
[1] = target: human pancreatic α-amylase (human) (UniProt P04746); test: enzyme inhibition kinetics
[2] = target: porcine pancreatic α-amylase (porcine) (UniProt P00690); test: enzyme inhibition kinetics
[3] = cited from earlier work
[4] = cited from earlier work; remark: listed apart in the source

Chain of UniProt P00690 (P00690 16-511): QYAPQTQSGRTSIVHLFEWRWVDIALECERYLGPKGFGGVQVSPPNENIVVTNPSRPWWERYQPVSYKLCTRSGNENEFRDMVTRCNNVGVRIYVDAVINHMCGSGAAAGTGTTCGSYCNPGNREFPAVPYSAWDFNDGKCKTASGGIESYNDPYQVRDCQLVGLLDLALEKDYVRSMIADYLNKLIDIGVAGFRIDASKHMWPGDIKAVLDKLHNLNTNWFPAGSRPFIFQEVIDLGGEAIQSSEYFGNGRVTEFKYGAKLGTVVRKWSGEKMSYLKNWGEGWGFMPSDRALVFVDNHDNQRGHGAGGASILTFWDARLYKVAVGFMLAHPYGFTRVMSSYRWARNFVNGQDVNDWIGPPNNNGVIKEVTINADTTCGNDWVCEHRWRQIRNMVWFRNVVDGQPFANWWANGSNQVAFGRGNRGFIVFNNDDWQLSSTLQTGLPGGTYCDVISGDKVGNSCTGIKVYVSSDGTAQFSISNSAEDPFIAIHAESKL
Chain of UniProt P04746 (P04746 16-511): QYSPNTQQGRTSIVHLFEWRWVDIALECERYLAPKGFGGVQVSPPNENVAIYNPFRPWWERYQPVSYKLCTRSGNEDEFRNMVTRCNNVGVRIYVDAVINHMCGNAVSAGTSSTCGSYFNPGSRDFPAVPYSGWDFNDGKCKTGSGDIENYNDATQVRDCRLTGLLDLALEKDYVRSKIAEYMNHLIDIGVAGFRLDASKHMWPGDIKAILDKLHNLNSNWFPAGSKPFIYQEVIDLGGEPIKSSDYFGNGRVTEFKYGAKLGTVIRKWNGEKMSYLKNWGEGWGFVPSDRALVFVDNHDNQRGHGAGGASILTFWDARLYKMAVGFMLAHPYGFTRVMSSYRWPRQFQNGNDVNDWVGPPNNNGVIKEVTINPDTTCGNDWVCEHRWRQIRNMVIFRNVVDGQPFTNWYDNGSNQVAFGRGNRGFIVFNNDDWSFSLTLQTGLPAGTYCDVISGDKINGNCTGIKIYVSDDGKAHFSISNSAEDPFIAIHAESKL

In the case of Montbretin A [reference compound], the Ki (HPA) is listed as 8 nM.

In the case of recombinant helianthamide (peptide), the Ki [1] is reported as 0.01 nM and the Ki [2] is reported as 0.1 nM.

B1: tendamistat: 74-residue peptide with two disulfide bonds from Streptomyces tendae (protein, UniProt P01092 31-104, looked up)
Alpha-amylase inhibitor …: DTTVSEPAPSCVTLYQSWRYSQADNGCAQTVTVKVVYEDDTEGLCYAVAPGQITTVGDGYIGSHGHARYLARCL
In the case of B1, the Ki (HPA; estimated) is given as 0.009 to 0.2 nM, the immunogenicity ([3]; clinic) is given as “pronounced immunogenicity” and the “blood plasma glucose levels” value ([3]; clinical trials) is given as “significant decrease in blood plasma glucose levels”. The vulnerability to degradation [4] was “vulnerability to degradation”.
